In article PMC3488246 one finds binding result and binding signal data, which are given here for one molecule.

One series addresses T1, PALB2 (UniProt Q86YC2 1-1186).
T1 sequence: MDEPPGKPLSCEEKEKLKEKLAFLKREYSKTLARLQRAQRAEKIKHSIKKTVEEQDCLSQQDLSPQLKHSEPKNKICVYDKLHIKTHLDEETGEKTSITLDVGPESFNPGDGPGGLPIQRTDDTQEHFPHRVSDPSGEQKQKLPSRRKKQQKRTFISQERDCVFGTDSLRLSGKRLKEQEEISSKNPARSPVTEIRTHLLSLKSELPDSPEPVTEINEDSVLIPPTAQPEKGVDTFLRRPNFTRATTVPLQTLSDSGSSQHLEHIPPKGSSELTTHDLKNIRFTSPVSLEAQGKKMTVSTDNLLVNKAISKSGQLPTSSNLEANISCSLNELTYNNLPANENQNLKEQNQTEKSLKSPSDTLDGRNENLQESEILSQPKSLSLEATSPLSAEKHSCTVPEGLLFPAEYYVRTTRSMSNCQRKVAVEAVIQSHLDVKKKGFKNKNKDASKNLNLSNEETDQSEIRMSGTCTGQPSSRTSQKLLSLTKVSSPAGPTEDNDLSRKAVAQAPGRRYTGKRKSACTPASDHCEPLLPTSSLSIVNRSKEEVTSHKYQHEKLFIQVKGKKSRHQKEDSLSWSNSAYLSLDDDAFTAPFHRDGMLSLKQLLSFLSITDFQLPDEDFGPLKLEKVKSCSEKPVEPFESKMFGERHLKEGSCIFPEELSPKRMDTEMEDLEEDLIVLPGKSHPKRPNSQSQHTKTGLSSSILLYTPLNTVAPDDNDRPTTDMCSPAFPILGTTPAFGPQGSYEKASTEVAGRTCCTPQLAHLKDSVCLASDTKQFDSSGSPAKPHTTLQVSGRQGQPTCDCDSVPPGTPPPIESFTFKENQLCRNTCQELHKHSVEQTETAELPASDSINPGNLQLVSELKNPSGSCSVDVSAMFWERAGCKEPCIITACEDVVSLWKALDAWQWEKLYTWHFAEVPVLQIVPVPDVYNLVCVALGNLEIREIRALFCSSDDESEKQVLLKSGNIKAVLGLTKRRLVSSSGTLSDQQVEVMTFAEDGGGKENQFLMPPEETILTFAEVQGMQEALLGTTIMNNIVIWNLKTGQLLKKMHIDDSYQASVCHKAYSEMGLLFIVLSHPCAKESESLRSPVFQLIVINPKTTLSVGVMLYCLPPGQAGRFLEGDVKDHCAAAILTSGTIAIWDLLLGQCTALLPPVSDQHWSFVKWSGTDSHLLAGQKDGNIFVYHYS
Put plainly: EMSA. On the technique in general: In EMSA bound probe runs differently from free probe, usually more slowly.

For another series, the target named is T2, PALB2Δ1-40 (UniProt Q86YC2 41-1186, del1-40).
T2 sequence: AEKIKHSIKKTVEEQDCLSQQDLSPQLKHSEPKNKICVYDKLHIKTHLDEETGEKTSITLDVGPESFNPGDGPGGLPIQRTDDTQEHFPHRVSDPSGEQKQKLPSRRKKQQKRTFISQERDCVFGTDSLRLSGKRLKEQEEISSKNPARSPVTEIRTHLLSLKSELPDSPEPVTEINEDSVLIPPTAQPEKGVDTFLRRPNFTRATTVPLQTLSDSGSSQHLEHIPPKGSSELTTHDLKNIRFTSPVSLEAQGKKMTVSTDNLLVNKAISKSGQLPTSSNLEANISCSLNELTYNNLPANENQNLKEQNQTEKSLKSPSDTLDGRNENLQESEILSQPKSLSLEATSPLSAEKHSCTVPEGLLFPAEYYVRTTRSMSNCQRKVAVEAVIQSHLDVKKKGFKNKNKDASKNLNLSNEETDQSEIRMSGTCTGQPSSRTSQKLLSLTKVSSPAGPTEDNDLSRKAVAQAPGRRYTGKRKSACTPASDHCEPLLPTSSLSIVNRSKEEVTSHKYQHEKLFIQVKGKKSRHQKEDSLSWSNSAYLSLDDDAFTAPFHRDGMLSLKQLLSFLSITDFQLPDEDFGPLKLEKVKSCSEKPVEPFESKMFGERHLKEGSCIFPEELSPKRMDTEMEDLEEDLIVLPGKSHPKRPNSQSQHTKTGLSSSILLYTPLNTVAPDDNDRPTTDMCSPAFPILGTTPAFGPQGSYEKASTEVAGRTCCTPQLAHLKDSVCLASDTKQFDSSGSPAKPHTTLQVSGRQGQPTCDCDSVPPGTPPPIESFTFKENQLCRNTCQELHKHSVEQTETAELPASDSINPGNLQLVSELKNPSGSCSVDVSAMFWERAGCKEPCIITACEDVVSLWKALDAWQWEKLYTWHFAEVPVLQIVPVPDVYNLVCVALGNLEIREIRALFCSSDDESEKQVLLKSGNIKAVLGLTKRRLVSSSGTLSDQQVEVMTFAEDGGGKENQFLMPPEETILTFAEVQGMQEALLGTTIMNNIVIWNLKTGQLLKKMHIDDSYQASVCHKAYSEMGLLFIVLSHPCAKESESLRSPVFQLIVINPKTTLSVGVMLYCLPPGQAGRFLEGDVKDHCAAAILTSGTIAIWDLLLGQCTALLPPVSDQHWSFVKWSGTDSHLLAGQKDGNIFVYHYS
Put plainly: EMSA.

B1: 60 nt ssDNA (ssDNA)
DNA: GGGTGAACCTGCAGGTGGGCAAAGATGTCCTAGCAATGTAATCGTCAAGCTTTATGCCGT
Regarding B1, the binding result with PALB2 was “binds”. For the same molecule, the binding signal with PALB2Δ1-40 was ~5 fold stronger affinity than PALB2.
